Data on three molecules can be found in patent US6998254, “Use of ROR for receptors for screening substances useful for the treatment of atherosclerosis” (Merck Patent Gesellschaft).

Common to all, as to conditions: tags: TnT T7 reticulocyte lysate from pCMX-hRORα1
Series [1] addresses T1, hRORα1 (RORA isoform 1) (Homo sapiens, UniProt P35398 P35398:1-523).
T1 sequence: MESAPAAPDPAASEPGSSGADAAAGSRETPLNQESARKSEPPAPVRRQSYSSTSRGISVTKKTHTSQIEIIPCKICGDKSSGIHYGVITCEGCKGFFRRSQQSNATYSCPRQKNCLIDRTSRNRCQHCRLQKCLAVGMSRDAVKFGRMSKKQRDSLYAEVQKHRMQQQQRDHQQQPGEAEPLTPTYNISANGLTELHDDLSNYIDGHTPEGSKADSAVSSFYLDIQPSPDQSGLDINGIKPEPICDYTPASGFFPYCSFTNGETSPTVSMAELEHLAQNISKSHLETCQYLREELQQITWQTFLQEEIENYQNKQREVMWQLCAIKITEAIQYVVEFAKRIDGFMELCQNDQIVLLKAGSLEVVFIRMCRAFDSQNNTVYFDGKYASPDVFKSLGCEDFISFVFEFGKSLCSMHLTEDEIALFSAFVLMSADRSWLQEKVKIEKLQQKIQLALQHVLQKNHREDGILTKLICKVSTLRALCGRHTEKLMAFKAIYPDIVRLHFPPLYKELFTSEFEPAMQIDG
The series can be described thus: competition; unlabelled competitor 10-100x.

Series [2] has as its target T1, hRORα1 (RORA isoform 1). The series can be described thus: competition; unlabelled competitor 10-100x. On the procedure: (§1) During the competition experiments, increasing concentrations of nonlabelled double-stranded oligo-nucleotides (molar excess of 10 to 100 fold) were added to the mixtures and incubated for 15 min at room temperature before the addition of the radioactive probes. After addition of the radioactive probes, the reticulocyte lysates were added to the mixture and incubated for 15 min at room temperature before the separation of the protein/DNA complexes by electrophoresis on a polyacrylamide gel (4%) in a 0.25× Tris-borate-EDTA buffer at room temperature (50).
In this figure, fragment −90/−64 of the promoter of the human gene for apo C-III was phosphorylated at the 5' ends with polynucleotide kinase in the presence of [γ-^32P]ATP. This probe was incubated in the presence of reticuloycte lysate ("TNT-T7", Promega) programmed to express the hRORα1 receptor according to the protocol defined by the manufacturer or in the presence of control lysate. The DNA/protein complexes were then separated on nondenaturing polyacrylamide gel. After drying, the gel is subjected to autoradiography. The first lane of the gel corresponds to the migration of the probe incubated in the presence of control lysate. The other lanes correspond to the migration of the probe incubated in the presence of lysate programmed to express hRORα1. […]
This is another data set of the same source.

Series [3] deals with T1, hRORα1 (RORA isoform 1). The series is described as follows: competition; 10-100x excess does not compete. As to the method:
as §1
In FIG. 7, the −198/+24 fragment of the promoter of the human gene for apo C-III was amplified by PCR with the aid of the primers 82 and 512 (Table 1) previously phosphoryiated at the 5' end by poly-nucleotide kinase in the presence of [γ-^32P]ATP. This probe was incubated in the presence of reticulocyte lysate (TNT-T7, Promega) programmed to express the hRORα1 receptor according to the protocol defined by the manufacturer or in the presence of control lysate. The DNA/protein complexes were then separated on a non denaturing polyacrylamide gel. After drying, the gel is subjected to autoradiography. The first lane of the gel corresponds to the migration of the probe alone. The second lane corresponds to the migration of the probe incubated in the presence of the control lysate. […]

B1: rAITaTaWT (-36/-12) (dsDNA)
DNA 1: GATCCACACATATATAGGTCAGGGAAGAAGA
DNA 2: GATCTCTTCTTCCCTGACCTATATATGTGTG
With B1, the binding result with hRORα1 (RORA isoform 1) [1] was “binds”.

B2: RORECons (dsDNA)
DNA 1: GATCTTGACCTACATTCTAAGCTG
DNA 2: GATCCAGCTTAGAATGTAGGTCAA
For the molecule B2, in the series with hRORα1 (RORA isoform 1) [2], the binding result is “binds”.

B3: hCIIITaTaKO (-33/-10) (dsDNA)
DNA 1: GATCGATATAAAACAGGCAGGAACCCTC
DNA 2: GATCGAGGGTTCCTGCCTGTTTTATATC
For the molecule B3, the binding result with hRORα1 (RORA isoform 1) [3] is “no binding”.
